From patent publication US8809529B2, “Imidazo[1,2-α]pyrazine derivatives” (Promega Corporation, priority 2010, dated 2014)
Like-named read-outs stand apart in the source and are kept apart here.

Tests used:
[1] = Stability of coelenterazines in reporter reagent buffer (T90); settings: time for luminescent signal to decay by 10% at 22° C.; read with OgLuc variant IV lysate
[2] = system: HEK293 cells; assay: Toxicity of coelenterazines in HEK293 cells (CELLTITER-GLO); settings: 24 hrs after compound addition
[3] = system: HEK293 cells; settings: human, 24 h
[4] = target: T1, L27V02 enzyme (Oplophorus gracilirostris, UniProt Q9GV45, A31E/A60N/A81I/F95D/I117V/K70R/L54V/L99Q/M102K/N193R/P142E/Q151K/Q38R/Q45L/V71I/Y165I); assay: Luminescence of compounds with purified L27V02 enzyme; assay type: biochemical; settings: 20 μM compound, 36 pM L27V02, pH 7, 3 min
T1 construct: The N-terminus of the OgLuc variant L27V is methionine, valine and phenylalanine, i.e., MVF; made in house
Procedure: Compounds PBI-4525, PBI-4540 and PBI-4541 were screened for their ability to detect luminescence. […] The assay reagent was then mixed with 36 pM purified L27V02 enzyme (described in Example 25B), in DMEM without Phenol Red and 0.1% PRIONEX®. As a control, assay buffer with 20 μM PBI-3939 or PBI-4528 was used. Luminescence was measured as previously described 3 min after the assay reagent was added to the enzyme mixture.

[5] = Enzyme kinetics of OgLuc variants (Km, Vmax); assay type: biochemical, E. coli; settings: PBI-3939, average of three replicates
Procedure: Using methods known in the art, enzyme kinetic assays measuring luminescence were performed with the lysates of E. coli containing N and the IV variants 15C1, 9B8, 9F6, and 9A3. […] Two fold serial dilutions of PBI-3939 in the assay buffer described previously in Example 26 were assayed with the diluted lysates. […] Variants 9B8 and 9F6 had higher Km values compared to IV while Km values for the other variants were unchanged.
Luminescence was measured on a TECAN® INFINITE® F500 luminometer.
The enzyme kinetics values were determined for the OgLuc variants as described previously, except luminescence was measured using a GLOMAX® luminometer. Three replicates were used for each variant.

[6] = Luminescence of OgLuc variants expressed in HEK293 cells; assay type: cell-based, human
Procedure: (§1) The PCR library in the pF4Ag-based non-fusion background was screened for additional variants with increased luminescence compared to 9B8 opt+K33N+170G (SEQ ID NOs: 68 and 69). Selected variants were then assayed in HEK293 and NIH3T3 cells. For each cell type, 15,000 cells were plated and grown overnight at 37° C. The next day, the cells were transfected as described in Example 25 with 10 ng pGL4.13 (Promega Corp.) as a transfection control and 100 ng of the OgLuc test DNA. The media was removed, and the cells were lysed with 100 μL of lysis buffer as described in Example 25 except the lysis buffer contained 100 mM MES pH 6.0 instead of HEPES, and luminescence measured using a GLOMAX® Luminometer.
(§2) Based on the above data, further combination variants were designed and generated (see Table 10) in the context of the pF4Ag-based non-fusion vector background without the 170G. The variants were analyzed in E. coli, HEK293 and NIH3T3 cells as described above and compared to 9B8 opt+K33N. The variants were also examined for luminescence with native coelenterazine.
(§3) The brightness of the variants expressed in HEK293 and NIH3T3 cells was measured as described previously. The luminescence of the variants was normalized to the luminescence generated by 9B8 opt (Table 27).
(§4) The variants 9B8 opt+K33N+T39T+K43R+Y68D (“V2”; SEQ ID NOs: 92 and 93), 9B8 opt+K33N+L27V+K43R+Y68D (SEQ ID NOs: 339 and 340), 9B8 opt+K33N+L27V+T39T+K43R+S66N (SEQ ID NOs: 341 and 342), and 9B8 opt+K33N+L27V+T39T+K43R+Y68D (“L27V”; SEQ ID NOs: 88 and 89) were subcloned into the Id-OgLuc-HT7 sandwich background as described above and assayed in HEK293 and NIH3T3 cells as described above. The luminescence generated by the sandwiched variants were compared to the luminescence generated by the […] sandwich (SEQ ID NOs: 59 and 60) (Table 38). The L27V sandwich (SEQ ID NOs: 90 and 91) and V2 sandwich (SEQ ID NOs: 94 and 95) had at least 1.3× fold-increase in luminescence in HEK293 and NIH3T3 cells.
(§5) The sandwich and non-sandwich versions of the variants V2, 9B8 opt+K33N+L27V+K43R+Y68D, 9B8 opt+K33N+L27V+T39T+K43R+S66N, and L27V were assayed in HEK293 and NIH3T3 cells as described in Example 37. The luminescence generated by the non-sandwiched variants was compared to the luminescence generated by the sandwiched variants (Table 39).

[7] = Luminescence of OgLuc variants expressed in NIH3T3 cells; assay type: cell-based
Procedure: as §1, §2, §3, §4, §5

[8] = assay type: biochemical, E. coli
Procedure: The signal stability of 15C1 with PBI-3945 and 9B8 with PBI-3889 was measured and compared to IV. E. coli containing plasmid DNA encoding 15C1, 9B8, or IV were grown and induced as described previously in 8-well replicates. Cells were lysed using a lysis buffer containing of 300 mM HEPES pH 8.0, 0.3× Passive Lysis Buffer (“PLB”; Promega Corp. Cat. No. E194A), 0.3 mg/mL lysozyme, and 0.003 U/μL RQ1 DNase. Lysates were diluted 1:1000 in lysis buffer and measured for luminescence using a TECAN® INFINITE® F500 luminometer. Measurements were taken immediately after the addition to 10 μL of diluted lysate sample of 50 μL of “Glo” 0.5% TERGITOL assay buffer (“0.5% TERGITOL”), which contained 150 mM KCl, 1 mM CDTA, 10 mM DTT, 100 mM thiourea, 0.5% TERGITOL® NP-9 (v/v), and 20 μM of either novel coelenterazines PBI-3945 or PBI 3889.
The signal stability of the variants was determined by re-reading the plate every 30 seconds for a length of time after the addition of the assay buffer to the sample. The signal half-life was determined from these measurements using methods known in the art. The average signal half-life was compared between the variants and IV. […] At t=10 min, luminescence for 15C1 with PBI-3945 and 9B8 with PBI-3889 were equivalent.
E. coli lysates containing the variants were prepared and analyzed as described previously except the assay buffer contained 0.25% TERGITOL® NP-9 (v/v), 100 mM MES pH 6.0, 1 mM CDTA, 150 mM KCl, 35 mM thiourea, 2 mM DTT, and 20 μM PBI-3939.

[9] = Brightness and relative specificity of 9B8 and 9B8 opt+K33N variants in E. coli lysates; assay type: biochemical
Procedure: Additional variants with improved relative specificity to novel PBI-3939 were generated as described previously by saturating amino acid positions 18, 68, 72, 75, and 90 in variant 9B8. […] Relative specificity was determined from the ratio of the luminescence of the variant with PBI-3939 to the luminescence of the variant with native coelenterazine, normalized to the ratio of corresponding luminescence of 9B8. Table 8 lists 9B8 variants (“Variant”) with at least 1.1× fold-increase in relative specificity for PBI-3939. […] 9B8 variants with amino acid substitutions K, D, F, G, Y, W, and H at position 18 had the highest fold improvement in relative specificity.
A new OgLuc library was created using 9B8opt+K33N as a starting template. The random library was created using DIVERSIFY® PCR Random Mutagenesis Kit (ClonTech; Catalog #630703). Condition 5 (as listed in the user manual) was used to generate additional variants, and the average mutation rate was calculated to be 2.6 mutations per gene by compiling sequence data from 83 randomly selected clones. This PCR library was cloned into the pF4Ag-based, non-fusion vector background described previously and the sandwich background, i.e., Id-OgLuc-HT7 (described in Example 45). Variants in the pF4Ag-base non-fusion vector background are designated with (NF). Variants in the sandwich vector background are designated with (F). In order to clone the PCR product into both vectors, an amino acid, i.e., a glycine, was appended to the variant sequence in pF4Ag, generating a new position 170 in the OgLuc variant (“170G”). The 170G is present in the sandwich construct, but in this case is considered part of the linker between OgLuc and HT7. For each library, 4,400 E. coli clones were assayed as described previously with the following exceptions. […] The assay buffer contained 100 mM MES pH 6.0 instead of HEPES, and 35 mM thiourea. The assay volumes were as follows: 10 μL cells, 40 μL lysis buffer, and 50 μL assay buffer.
as §2
E. coli lysates containing the variants were prepared and analyzed as described previously. Luminescence generated from the lysates was measured using the novel PBI-3939 and native coelenterazine as substrates. The luminescence of the variants was normalized to the luminescence generated by 9B8 opt (Table 12). The relative specificity of the variants for PBI-3939 and native coelenterazine was calculated by dividing the luminescence of the variants using PBI-3939 as a substrate with the luminescence of the variants using native coelenterazine as a substrate (Table 12).

[10] = assay type: physicochemical, E. coli; settings: 60° C., assay buffer 100 mM MES pH 6.0
Procedure: Aliquots were removed at different time-points and placed on dry ice to freeze the samples. […] Luminescence was measured on a GLOMAX® luminometer (Promega Corp.).
The thermal stability of the variants at 60° C. was examined as described above, except the assay buffer contained 100 mM MES pH 6.0 instead of HEPES.

[11] = relative specificity for PBI-3939

O=c1c(Cc2ccccc2)nc2c(Cc3ccccc3)[nH]c(-c3ccccc3)cn1-2 [Coelenterazine hh, bis-deoxycoelenterazine, reference compound]
Stability (pH 8) (T90 in hrs) [1]: 2.0 hrs | Viability (normalized to vehicle (DMSO) control) (%) [2]: 87%

Oc1ccc(Cc2nc3c(Cc4ccccc4)nc(-c4ccc(O)cc4)cn3c2O)cc1 [Native coelenterazine, coelenterazine, reference compound]
Viability (normalized to vehicle (DMSO) control) (%) [3]: 100% | Stability (pH 8) (T90 in hrs): 1.7 hrs

O=c1c(Cc2ccc(O)cc2)nc2c(Cc3ccccc3)[nH]c(-c3ccccc3)cn1-2 [PBI-3840, 8-benzyl-2-(4-hydroxybenzyl)-6-phenylimidazo[1,2-a]pyrazin-3(7H)-one]
Viability (normalized to vehicle (DMSO) control) (%) [3]: 60%

O=c1c(Cc2cccs2)nc2c(Cc3ccccc3)[nH]c(-c3ccccc3)cn1-2 [PBI-3889, 8-benzyl-6-phenyl-2-(thiophen-2-ylmethyl)imidazo[1,2-a]pyrazin-3(7H)-one]
Viability (normalized to vehicle (DMSO) control) (%) [3]: 90% | Stability (pH 8) (T90 in hrs): 2.9 hrs

Cc1[nH]c(-c2ccccc2)cn2c(=O)c(Cc3ccc(O)cc3)nc1-2 [PBI-3896, 2-(4-hydroxybenzyl)-8-methyl-6-phenylimidazo[1,2-a]pyrazin-3(7H)-one]
Stability (pH 8) (T90 in hrs): 2.8 hrs

O=c1c(Cc2ccco2)nc2c(Cc3ccccc3)[nH]c(-c3ccc(O)cc3)cn1-2 [PBI-3945]
Stability (pH 8) (T90 in hrs) [1]: 3.3 hrs | Viability (normalized to vehicle (DMSO) control) (%) [2]: 100%

O=c1c(Cc2cccs2)nc2c(Cc3ccccc3)[nH]c(-c3ccc(O)cc3)cn1-2 [PBI-4002]
Stability (pH 8) (T90 in hrs) [1]: 3.5 hrs | Viability (normalized to vehicle (DMSO) control) (%) [2]: 100%

Cn1ccnc1Cc1nc2c(Cc3ccccc3)[nH]c(-c3ccccc3)cn-2c1=O [PBI-4525, 8-benzyl-2-((1-methyl-1H-imidazol-2-yl)methyl)-6-phenylimidazo[1,2-a]pyrazin-3(7H)-one]
RLU [4]: 20,655 RLU

Cn1ccnc1CC1=NC2=C(Cc3ccccc3)NC(c3ccccc3)(c3ccc(O)cc3)CN2C1=O (stereo not shown) [PBI-4540, 8-benzyl-6-(4-hydroxyphenyl)-2-((1-methyl-1H-imidazol-2-yl)methyl)-6-phenylimidazo[1,2-a]pyrazin-3(7H)-one]
RLU [4]: 909 RLU

B1: L27V, K43R, Y68D: 9B8 opt+K33N+L27V+K43R+Y68D (protein)
chain: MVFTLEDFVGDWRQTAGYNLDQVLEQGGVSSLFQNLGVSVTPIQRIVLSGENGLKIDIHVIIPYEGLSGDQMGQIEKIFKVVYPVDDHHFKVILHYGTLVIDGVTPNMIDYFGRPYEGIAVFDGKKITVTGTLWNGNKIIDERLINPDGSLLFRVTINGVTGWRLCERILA
Km [5]: 13.7 µM | Vmax [5]: 130,000,000 RLU/0.5 sec | Fold-Decrease in Luminescence in the Presence of Sandwich Background: HEK 293 [6]: 8 | Fold over 9B8 opt + K33N: HEK293 ([6]; luminescence, PBI-3939): 0.9 | Increase in Luminescence: HEK293 ([6]; normalized to 9B8 opt): 1.6 | Fold over Native Coelenterazine: HEK293 [6, 11]: 101 | Fold-Decrease in Luminescence in the Presence of Sandwich Background: NIH 3T3 cells [7]: 22 | Fold over 9B8 opt + K33N: NIH3T3 ([7]; luminescence, PBI-3939): 0.8 | Increase in Luminescence: NIH3T3 ([7]; normalized to 9B8 opt): 1.5 | Fold over Native Coelenterazine: NIH3T3 [7, 11]: 98 | signal half life [8]: 2.03 h | Fold over coelenterazine ([9]; bacterial lysates, PBI-3939 luminescence divided by native coelenterazine luminescence): 110 | Fold over 9B8 ([9]; bacterial lysates, luminescence normalized to 9B8 opt): 1.3 | fold-increase in relative specificity over 9B8 opt+K33N ([9]; in the three cell types examined): 5 × | Fold over 9B8 opt + K33N: E. coli ([9]; luminescence, PBI-3939): 1.2 | Fold over Native Coelenterazine: E. coli [9, 11]: 98.3 | ½ life hours [10]: 23.2 h
